Measured values as given in patent US20180148497A1 (DUKE UNIVERSITY, published 2018).

Tests used:
[1] = target: T1, M.ConS gp140 CFI (HIV-1 group M consensus Env protein); assay: SPR (BIAcore 3000), Env protein over DART captured on immobilized CD3
T1 construct: also called M.ConS gp140ΔCFI

[2] = target: T2, HIV-1 Env, HXBc2, subtype B, expressed on Jurkat 522-F/Y cells (HIV-1 (HXBc2, subtype B), UniProt P04578 33-856); assay: cell-based or functional assay
[3] = target: T3, human CD3 on cells (primary human T cells; Jurkat 522-F/Y cells) (human, UniProt P07766 23-207); assay: flow cytometry on primary human T cells (Env- CD3+), DART at 4 µg/mL, biotinylated anti-EK antibody and streptavidin-PE [panel D. Human T Cells]
T3 construct: whole, on cells; The other chains of the CD3 complex were also present on the cells; also called CD3ε; human CD3+ T cells
T3 sequence (P07766 23-207): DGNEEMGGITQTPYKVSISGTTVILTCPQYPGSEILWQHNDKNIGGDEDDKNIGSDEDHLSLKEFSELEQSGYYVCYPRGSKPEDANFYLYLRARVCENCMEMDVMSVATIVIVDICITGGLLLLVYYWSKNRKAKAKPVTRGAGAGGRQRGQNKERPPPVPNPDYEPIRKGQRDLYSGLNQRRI

[4] = target: T1, M.ConS gp140 CFI (HIV-1 group M …); assay: SPR (BIAcore 3000), M.ConS gp140 over DART captured on immobilized CD3ε/δ, 1:1 Langmuir global fit
[5] = target: JR-FL gp140 CF (HIV-1 Env protein) (HIV-1 (JR-FL)); assay: SPR (BIAcore 3000), Env protein over DART captured on immobilized CD3
[6] = target: JR-FL gp140 CF (HIV-1 Env protein) (HIV-1 (JR-FL)); assay: SPR (BIAcore 3000), JR-FL gp140 over DART captured on immobilized CD3ε/δ, 1:1 Langmuir global fit
[7] = target: T3, human CD3 on cells (primary human T …); assay: flow cytometry on primary human T cells (Env- CD3+), biotinylated anti-EK antibody and streptavidin-PE [panel D. Human T Cells]
[8] = target: T2, HIV-1 Env, HXBc2, subtype B, expressed …; assay: flow cytometry on Jurkat-522 F/Y cells (Env+ CD3+), biotinylated anti-EK antibody and streptavidin-PE [panel F. Jurkat-522 F/Y Cells]

Binder	EC50 of redirected T-cell killing of Env+ Jurkat 522-F/Y GF cells, E:T 10:1, 48 hours, LUM assay [2]	EC50 of redirected T-cell killing of Env+ Jurkat 522-F/Y cells, E:T 10:1, 48 hours, LDH release assay [2]	binding result [3]	binding result [7]	also measured
HIV-1 × CD3 Bi-Specific Diabody (A32 × CD3) (bispecific antibody, Two-chain DART without Fc, with an interchain disulfide and E-coil/K-coil domains; also called A32×CD3 DART) chain 1: QSALTQPPSASGSPGQSVTISCTGTSSDVGGYNYVSWYQHHPGKAPKLIISEVNNRPSGVPDRFSGSKSGNTASLTVSGLQAEDEAEYYCSSYTDIHNFVFGGGTKLTVLGGGSGGGGEVQLVESGGGLVQPGGSLRLSCAASGFTFSTYAMNWVRQAPGKGLEWVGRIRSKYNNYATYYADSVKGRFTISRDDSKNSLYLQMNSLKTEDTAVYYCVRHGNFGNSYVSWFAYWGQGTLVTVSSGGCGGGEVAALEKEVAALEKEVAALEKEVAALEK chain 2: QAVVTQEPSLTVSPGGTVTLTCRSSTGAVTTSNYANWVQQKPGQAPRGLIGGTNKRAPWTPARFSGSLLGGKAALTITGAQAEDEADYYCALWYSNLWVFGGGTKLTVLGGGGSGGGGQVQLQESGPGLVKPSQTLSLSCTVSGGSSSSGAHYWSWIRQYPGKGLEWIGYIHYSGNTYYNPSLKSRITISQHTSENQFSLKLNSVTVADTAVYYCARGTRLRTLRNAFDIWGQGTLVTVSSGGCGGGKVAALKEKVAALKEKVAALKEKVAALKE	0.172 ng/mL	0.23 ng/mL	binds		Kd [1]: 47.7 nM; koff [4]: 0.00081 s⁻¹; kon [4]: 17000 M⁻¹ s⁻¹
HIV-1 × CD3 Bi-Specific Diabody (7B2 × CD3) (bispecific antibody, Two-chain DART without Fc; also called 7B2×CD3 DART) chain 1: DIVMTQSPDSLAVSPGERATIHCKSSQTLLYSSNNRHSIAWYQQRPGQPPKLLLYWASMRLSGVPDRFSGSGSGTDFTLTINNLQAEDVAIYYCHQYSSHPPTFGHGTRVEIKGGGSGGGGEVQLVESGGGLVQPGGSLRLSCAASGFTFSTYAMNWVRQAPGKGLEWVGRIRSKYNNYATYYADSVKGRFTISRDDSKNSLYLQMNSLKTEDTAVYYCVRHGNFGNSYVSWFAYWGQGTLVTVSSGGCGGGEVAALEKEVAALEKEVAALEKEVAALEK chain 2: QAVVTQEPSLTVSPGGTVTLTCRSSTGAVTTSNYANWVQQKPGQAPRGLIGGTNKRAPWTPARFSGSLLGGKAALTITGAQAEDEADYYCALWYSNLWVFGGGTKLTVLGGGGSGGGGQVQLVQSGGGVFKPGGSLRLSCEASGFTFTEYYMTWVRQAPGKGLEWLAYISKNGEYSKYSPSSNGRFTISRDNAKNSVFLQLDRLSADDTAVYYCARADGLTYFSELLQYIFDLWGQGARVTVSSGGCGGGKVAALKEKVAALKEKVAALKEKVAALKE	0.147 ng/mL	0.16 ng/mL	binds		Kd [5]: 15.1 nM; koff [6]: 0.00031 s⁻¹; kon [6]: 20000 M⁻¹ s⁻¹
HIV-1 × Fluorescein Bi-Specific Diabody (A32 × 4420) (bispecific antibody) chain 1: QSALTQPPSASGSPGQSVTISCTGTSSDVGGYNYVSWYQHHPGKAPKLIISEVNNRPSGVPDRFSGSKSGNTASLTVSGLQAEDEAEYYCSSYTDIHNFVFGGGTKLTVLGGGSGGGGEVKLDETGGGLVQPGRPMKLSCVASGFTFSDYWMNWVRQSPEKGLEWVAQIRNKPYNYETYYSDSVKGRFTISRDDSKSSVYLQMNNLRVEDMGIYYCTGSYYGMDYWGQGTSVTVSSGGCGGGEVAALEKEVAALEKEVAALEKEVAALEK chain 2: DVVMTQTPFSLPVSLGDQASISCRSSQSLVHSNGNTYLRWYLQKPGQSPKVLIYKVSNRFSGVPDRFSGSGSGTDFTLKISRVEAEDLGVYFCSQSTHVPWTFGGGTKLEIKGGGSGGGGQVQLQESGPGLVKPSQTLSLSCTVSGGSSSSGAHYWSWIRQYPGKGLEWIGYIHYSGNTYYNPSLKSRITISQHTSENQFSLKLNSVTVADTAVYYCARGTRLRTLRNAFDIWGQGTLVTVSSGGCGGGKVAALKEKVAALKEKVAALKEKVAALKE				no binding (tested: 4 µg/mL (single concentration))	
HIV-1 × Fluorescein Bi-Specific Diabody (7B2 × 4420) (bispecific antibody) chain 1: DIVMTQSPDSLAVSPGERATIHCKSSQTLLYSSNNRHSIAWYQQRPGQPPKLLLYWASMRLSGVPDRFSGSGSGTDFTLTINNLQAEDVAIYYCHQYSSHPPTFGHGTRVEIKGGGSGGGGEVKLDETGGGLVQPGRPMKLSCVASGFTFSDYWMNWVRQSPEKGLEWVAQIRNKPYNYETYYSDSVKGRFTISRDDSKSSVYLQMNNLRVEDMGIYYCTGSYYGMDYWGQGTSVTVSSGGCGGGEVAALEKEVAALEKEVAALEKEVAALEK chain 2: DVVMTQTPFSLPVSLGDQASISCRSSQSLVHSNGNTYLRWYLQKPGQSPKVLIYKVSNRFSGVPDRFSGSGSGTDFTLKISRVEAEDLGVYFCSQSTHVPWTFGGGTKLEIKGGGSGGGGQVQLVQSGGGVFKPGGSLRLSCEASGFTFTEYYMTWVRQAPGKGLEWLAYISKNGEYSKYSPSSNGRFTISRDNAKNSVFLQLDRLSADDTAVYYCARADGLTYFSELLQYIFDLWGQGARVTVSSGGCGGGKVAALKEKVAALKEKVAALKEKVAALKE				no binding (tested: 4 µg/mL (single concentration))	binding result [8]: no binding (tested: 4 µg/mL (single concentration))
